According to IntAct's records for PubMed 16905657:

B1: Clathrin heavy chain 1 (Arabidopsis thaliana (Mouse-ear cress)), Q0WNJ6 (parent)
chain: MAAANAPIIMKEVLTLPSVGIGQQFITFTNVTMESDKYICVRETAPQNSVVIIDMNMPMQPLRRPITADSALMNPNSRILALKAQVPGTTQDHLQIFNIEAKAKLKSHQMPEQVAFWKWITPKMLGLVTQTSVYHWSIEGDSEPVKMFDRTANLANNQIINYKCSPNEKWLVLIGIAPGSPERPQLVKGNMQLFSVDQQRSQALEAHAASFAQFKVPGNENPSILISFASKSFNAGQITSKLHVIELGAQPGKPSFTKKQADLFFPPDFADDFPVAMQVSHKFNLIYVITKLGLLFVYDLETASAIYRNRISPDPIFLTSEASSVGGFYAINRRGQVLLATVNEATIIPFISGQLNNLELAVNLAKRGNLPGAENLVVQRFQELFAQTKYKEAAELAAESPQGILRTPDTVAKFQSVPVQAGQTPPLLQYFGTLLTRGKLNSYESLELSRLVVNQNKKNLLENWLAEDKLECSEELGDLVKTVDNDLALKIYIKARATPKVVAAFAERREFDKILIYSKQVGYTPDYMFLLQTILRTDPQGAVNFALMMSQMEGGCPVDYNTITDLFLQRNLIREATAFLLDVLKPNLPEHAFLQTKVLEINLVTFPNVADAILANGMFSHYDRPRVAQLCEKAGLYIQSLKHYSELPDIKRVIVNTHAIEPQALVEFFGTLSSEWAMECMKDLLLVNLRGNLQIIVQACKEYCEQLGVDACIKLFEQFKSYEGLYFFLGSYLSMSEDPEIHFKYIEAAAKTGQIKEVERVTRESNFYDAEKTKNFLMEAKLPDARPLINVCDRFGFVPDLTHYLYTNNMLRYIEGYVQKVNPGNAPLVVGQLLDDECPEDFIKGLILSVRSLLPVEPLVAECEKRNRLRLLTQFLEHLVSEGSQDVHVHNALGKIIIDSNNNPEHFLTTNPYYDSKVVGKYCEKRDPTLAVVAYRRGQCDEELINVTNKNSLFKLQARYVVERMDGDLWEKVLTEENEYRRQLIDQVVSTALPESKSPEQVSAAVKAFMTADLPHELIELLEKIVLQNSAFSGNFNLQNLLILTAIKADPSRVMDYINRLDNFDGPAVGEVAVDAQLYEEAFAIFKKFNLNVQAVNVLLDNVRSIERAVEFAFRVEEDAVWSQVAKAQLREGLVSDAIESFIRADDTTQFLEVIRASEDTNVYDDLVRYLLMVRQKVKEPKVDSELIYAYAKIERLGEIEEFILMPNVANLQHVGDRLYDEALYEAAKIIYAFISNWAKLAVTLVKLQQFQGAVDAARKANSAKTWKEVCFACVDAEEFRLAQICGLNIIIQVDDLEEVSEYYQNRGCFNELISLMESGLGLERAHMGIFTELGVLYARYRYEKLMEHIKLFSTRLNIPKLIRACDEQQHWQELTYLYIQYDEFDNAATTVMNHSPEAWEHMQFKDIVAKVANVELYYKAVHFYLQEHPDIINDLLNVLALRLDHTRVVDIMRKAGHLRLIKPYMVAVQSNNVSAVNEALNEIYAEEEDYDRLRESIDLHDSFDQIGLAQKIEKHELVEMRRVAAYIYKKAGRWKQSIALSKKDNMYKDCMETASQSGDHDLAEQLLVYFIEQGKKECFATCLFVCYDLIRPDVALELAWINNMIDFAFPYLLQFIREYSGKVDELIKDKLEAQKEVKAKEQEEKDVMSQQNMYAQLLPLALPAPPMPGMGGGGYGPPPQMGGMPGMSGMPPMPPYGMPPMGGY
partner: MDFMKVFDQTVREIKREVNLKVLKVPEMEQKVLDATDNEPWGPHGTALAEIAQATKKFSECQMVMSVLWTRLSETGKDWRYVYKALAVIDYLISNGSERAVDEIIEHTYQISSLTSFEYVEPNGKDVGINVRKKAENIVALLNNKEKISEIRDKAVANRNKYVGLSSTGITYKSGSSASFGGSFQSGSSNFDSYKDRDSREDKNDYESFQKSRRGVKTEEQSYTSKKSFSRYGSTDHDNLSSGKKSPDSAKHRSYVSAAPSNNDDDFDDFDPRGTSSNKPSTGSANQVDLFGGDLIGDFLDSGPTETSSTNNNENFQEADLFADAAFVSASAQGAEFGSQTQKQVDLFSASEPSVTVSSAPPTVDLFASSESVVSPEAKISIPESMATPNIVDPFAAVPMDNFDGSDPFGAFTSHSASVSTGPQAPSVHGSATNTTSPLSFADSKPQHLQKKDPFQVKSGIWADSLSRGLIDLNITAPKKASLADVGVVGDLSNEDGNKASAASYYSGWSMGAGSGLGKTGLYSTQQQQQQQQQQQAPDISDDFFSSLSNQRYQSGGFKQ

Variants of: B1
Conditions: with epn1_arath EPSIN1, Q8VY07

Row | Variant | effect of a mutation on the interaction
1 | L470R | disrupting interaction
